Data published in paper PMC4080824, “Altered native stability is the dominant basis for susceptibility of α1-antitrypsin mutants to polymerization” (Biochemical Journal, 2014).

Columns and labels:
[1] = biological target: bovine α-chymotrypsin (bovine); assay: stoichiometry of inhibition by titration of enzyme activity; inhibitor incubated with 0.5 μM bovine α-chymotrypsin for 30 min at room temperature (21°C) in 20 mM Tris/HCl, 0.1 M NaCl, 0.1% PEG 8000, 10 mM CaCl2 pH 8.0; residual activity on N-succinyl-Ala-Ala-Pro-Phe-p-nitroanilide
[2] = biological target: bovine α-chymotrypsin (bovine); assay: stoichiometry of inhibition by titration of enzyme activity; as the stoichiometry of inhibition assay, protein treated with 100 mM 2-mercaptoethanol (reduced)
[3] = biological target: the molecule itself; assay: FRET or BRET; mutant series; 0.2 mg/ml protein, 4 μM Atto550–Ni-NTA and 4 μM Atto647N–Ni-NTA on the His6 tag, 10 mM NaH2PO4/Na2HPO4, 100 mM NaCl pH 7.4; heat-induced polymerization at 60°C; time to half-maximal signal
[4] = biological target: the molecule itself; assay: FRET or BRET; mutant series; 0.2 mg/ml protein, 4 μM Atto550–Ni-NTA and 4 μM Atto647N–Ni-NTA on the His6 tag, 10 mM NaH2PO4/Na2HPO4, 100 mM NaCl pH 7.4; heat-induced polymerization at 65°C; time to half-maximal signal
[5] = biological target: the molecule itself; assay: FRET or BRET; mutant series; 0.2 mg/ml protein, 4 μM Atto550–Ni-NTA and 4 μM Atto647N–Ni-NTA on the His6 tag, 10 mM NaH2PO4/Na2HPO4, 100 mM NaCl pH 7.4; heat-induced polymerization at 55°C; time to half-maximal signal

| Molecule | SI (stoichiometry of inhibition) [1] | SI (stoichiometry of inhibition) [2] | polymerization half-time (t0.5) [3] [s] | polymerization half-time (t0.5) [4] [s] | polymerization half-time (t0.5) [5] [s] |
| --- | --- | --- | --- | --- | --- |
| α1-antitrypsin C232S S292C/T339C (292–339) (from UniProt P01009 26-418) (natural protein) | 1 | 1 | – | – | – |
| α1-antitrypsin C232S K191C/T339C (191–339) (from UniProt P01009 26-418) (natural protein) | – | 1 | – | – | – |
| α1-antitrypsin C232S K335A (from UniProt P01009 26-418) (natural protein) | 1 | – | – | – | – |
| α1-antitrypsin C232S E162C/V170C (162–170) (from UniProt P01009 26-418) (natural protein) | 1 | 1 | – | – | – |
| α1-antitrypsin C232S K168C/F189C (168–189) (from UniProt P01009 26-418) (natural protein) | 8.5 | – | – | – | – |
| α1-antitrypsin C232S (AT_(C232S)) (from UniProt P01009 26-418) (natural protein) | 1.1 | – | – | – | – |
| α1-antitrypsin C232S S283C/P361C (283–361) (from UniProt P01009 26-418) (natural protein) | 1 | 1 | – | – | – |
| α1-antitrypsin C232S K331V (from UniProt P01009 26-418) (natural protein) | 3.9 | – | – | – | – |
| α1-antitrypsin C232S E162C/V170C (162–170) (natural protein, disulfide bond between C162 and C170 (predominantly in the disulfide-bonded form, >90%); reduced where treated with 100 mM 2-mercaptoethanol, α1-antitrypsin, wild-type (M) ORF on the C232S background; Same construct as m3 with the stated changes; source: E. coli SG13009/pREP4 (pQE-30) or BL21(DE3) (pQE-81L), purified; not shown: His6, N-terminal, kept) DPQGDAAQKTDTSHHDQDHPTFNKITPNLAEFAFSLYRQLAHQSNSTNIFFSPVSIATAFAMLSLGTKADTHDEILEGLNFNLTEIPEAQIHEGFQELLRTLNQPDSQLQLTTGNGLFLSEGLKLVDKFLEDVKKLYHSEAFTVNFGDTEEAKKQINDYVCKGTQGKICDLVKELDRDTVFALVNYIFFKGKWERPFEVKDTEEEDFHVDQVTTVKVPMMKRLGMFNIQHSKKLSSWVLLMKYLGNATAIFFLPDEGKLQHLENELTHDIITKFLENEDRRSASLHLPKLSITGTYDLKSVLGQLGITKVFSNGADLSGVTEEAPLKLSKAVHKAVLTIDEKGTEAAGAMFLEAIPMSIPPEVKFNKPFVFLMIEQNTKSPLFMGKVVNPTQK | – | – | 941 | 226 | 3930 |
| α1-antitrypsin C232S S292C/T339C (292–339) (natural protein, disulfide bond between C292 and C339 (predominantly in the disulfide-bonded form, >90%); reduced where treated with 100 mM 2-mercaptoethanol, α1-antitrypsin, wild-type (M) ORF on the C232S background; Same construct as m3 with the stated changes; source: E. coli SG13009/pREP4 (pQE-30) or BL21(DE3) (pQE-81L), purified; not shown: His6, N-terminal, kept) DPQGDAAQKTDTSHHDQDHPTFNKITPNLAEFAFSLYRQLAHQSNSTNIFFSPVSIATAFAMLSLGTKADTHDEILEGLNFNLTEIPEAQIHEGFQELLRTLNQPDSQLQLTTGNGLFLSEGLKLVDKFLEDVKKLYHSEAFTVNFGDTEEAKKQINDYVEKGTQGKIVDLVKELDRDTVFALVNYIFFKGKWERPFEVKDTEEEDFHVDQVTTVKVPMMKRLGMFNIQHSKKLSSWVLLMKYLGNATAIFFLPDEGKLQHLENELTHDIITKFLENEDRRSASLHLPKLCITGTYDLKSVLGQLGITKVFSNGADLSGVTEEAPLKLSKAVHKAVLCIDEKGTEAAGAMFLEAIPMSIPPEVKFNKPFVFLMIEQNTKSPLFMGKVVNPTQK | – | – | 307 | 51 | 2290 |
| α1-antitrypsin C232S S283C/P361C (283–361) (natural protein, disulfide bond between C283 and C361 (predominantly in the disulfide-bonded form, >90%); reduced where treated with 100 mM 2-mercaptoethanol, α1-antitrypsin, wild-type (M) ORF on the C232S background; Same construct as m3 with the stated changes; source: E. coli SG13009/pREP4 (pQE-30) or BL21(DE3) (pQE-81L), purified; not shown: His6, N-terminal, kept) DPQGDAAQKTDTSHHDQDHPTFNKITPNLAEFAFSLYRQLAHQSNSTNIFFSPVSIATAFAMLSLGTKADTHDEILEGLNFNLTEIPEAQIHEGFQELLRTLNQPDSQLQLTTGNGLFLSEGLKLVDKFLEDVKKLYHSEAFTVNFGDTEEAKKQINDYVEKGTQGKIVDLVKELDRDTVFALVNYIFFKGKWERPFEVKDTEEEDFHVDQVTTVKVPMMKRLGMFNIQHSKKLSSWVLLMKYLGNATAIFFLPDEGKLQHLENELTHDIITKFLENEDRRCASLHLPKLSITGTYDLKSVLGQLGITKVFSNGADLSGVTEEAPLKLSKAVHKAVLTIDEKGTEAAGAMFLEAIPMSICPEVKFNKPFVFLMIEQNTKSPLFMGKVVNPTQK | – | – | 1430 | 37 | 8970 |
| α1-antitrypsin C232S K168C/F189C (168–189) (natural protein, disulfide bond between C168 and C189 (predominantly in the disulfide-bonded form, >90%); reduced where treated with 100 mM 2-mercaptoethanol, α1-antitrypsin, wild-type (M) ORF on the C232S background; Same construct as m3 with the stated changes; source: E. coli SG13009/pREP4 (pQE-30) or BL21(DE3) (pQE-81L), purified; not shown: His6, N-terminal, kept) DPQGDAAQKTDTSHHDQDHPTFNKITPNLAEFAFSLYRQLAHQSNSTNIFFSPVSIATAFAMLSLGTKADTHDEILEGLNFNLTEIPEAQIHEGFQELLRTLNQPDSQLQLTTGNGLFLSEGLKLVDKFLEDVKKLYHSEAFTVNFGDTEEAKKQINDYVEKGTQGCIVDLVKELDRDTVFALVNYICFKGKWERPFEVKDTEEEDFHVDQVTTVKVPMMKRLGMFNIQHSKKLSSWVLLMKYLGNATAIFFLPDEGKLQHLENELTHDIITKFLENEDRRSASLHLPKLSITGTYDLKSVLGQLGITKVFSNGADLSGVTEEAPLKLSKAVHKAVLTIDEKGTEAAGAMFLEAIPMSIPPEVKFNKPFVFLMIEQNTKSPLFMGKVVNPTQK | – | – | 8870 | 1010 | 21900 |
